# Assay results reported in US20150307590A1 (GOVERNORS OF THE UNIVERSITY OF ALBERTA, published 2015).
# T1: human IL-28R alpha subunit (human, UniProt Q8IU57 21-228, limits assumed)
# T1 construct: also called IL28R1; IL-28R1
# T1 sequence: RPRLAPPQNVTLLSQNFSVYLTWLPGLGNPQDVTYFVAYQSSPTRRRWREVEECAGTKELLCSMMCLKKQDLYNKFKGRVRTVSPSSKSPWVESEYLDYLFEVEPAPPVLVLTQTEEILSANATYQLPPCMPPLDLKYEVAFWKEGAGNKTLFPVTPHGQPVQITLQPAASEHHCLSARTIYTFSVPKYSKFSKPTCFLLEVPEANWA
# Target: T1, human IL-28R alpha subunit
# Experiment: ELISA (right panel)
row,Binder,binding result
1,ELASFKKARDALEESLKL (also called 28pep1; Pep1) [Peptide 1 (IL29-1)],binds
2,EATADTDPALGDVLDQPL (also called 28pep18) [Peptide 18 (IL28BT-3)],binds
3,ELQAFKRAKDALEESLLL (also called 28pep2; Pep2) [Peptide 2 (IL28-1)],binds
4,LLKDCKCRSRLFPRTWDLRQ (also called 28pep15) [Peptide 15 (IL28BT-2)],binds
5,LLKDCRCHSRLFPRTWDLRQ (also called 28pep16) [Peptide 16 (IL28AT-2)],binds
6,KLKNWSCSSPVFPGNWDLRL (also called 28pep17; p17) [Peptide 17 (IL29T-2)],binds

# Target: T1, human IL-28R alpha subunit
# Experiment: Biacore assay (left panel), n=6
row,Binder,binding result
1,"human IL-28A (ligand, also called IFN-λ2; interferon-lambda-2) VPVARLHGALPDARGCHIAQFKSLSPQELQAFKRAKDALEESLLLKDCRCHSRLFPRTWDLRQLQVRERPMALEAELALTLKVLEATADTDPALVDVLDQPLHTLHHILSQFRACIQPQPTAGPRTRGRLHHWLYRLQEAPKKESPGCLEASVTFNLFRLLTRDLNCVASGDLCV",binds
2,"human IL-28B (ligand, also called IFN-λ3; interferon-lambda-3) VPVARLRGALPDARGCHIAQFKSLSPQELQAFKRAKDALEESLLLKDCKCRSRLFPRTWDLRQLQVRERPVALEAELALTLKVLEATADTDPALGDVLDQPLHTLHHILSQLRACIQPQPTAGPRTRGRLHHWLHRLQEAPKKESPGCLEASVTFNLFRLLTRDLNCVASGDLCV",binds
3,"human IL-29 (ligand, also called IFN-λ1; interferon-lambda-1) GPVPTSKPTTTGKGCHIGRFKSLSPQELASFKKARDALEESLKLKNWSCSSPVFPGNWDLRLLQVRERPVALEAELALTLKVLEAAAGPALEDVLDQPLHTLHHILSQLQACIQPQPTAGPRPRGRLHHWLHRLQEAPKKESAGCLEASVTFNLFRLLTRDLKYVADGNLCLRTSTHPEST",binds
